Here are results for two sequences from publication PMC7644011.

This series deals with rituximab (MabThera, anti-CD20 chimeric mouse/human IgG1) (chimeric mouse/human). As to the kind of experiment: ELASA. Particulars: 80°C 1 min; ELASA on protein A plates, antibody 4 ug/ml; aptamers folded in 20 mM Tris pH 7.6, 100 mM NaCl, 2 mM MgCl2, 5 mM KCl, 1 mM CaCl2, 0.02% Tween 20, then diluted ….

Sequence “ACTTCGGCTAGTTAGGGGGTAGTTTAGATCGTCTCTACAT [C10]” displayed a Kd of 17.6 nM.
“GGCCATTGTGGACTTCTTTGGGTAATTCAGGGGCTCGATT [C7]” registered a Kd of 8.8 nM.
